# Source: PMC12449476, “Transient ligand contacts of the intrinsically disordered N-terminus of neuropeptide Y2 receptor regulate arrestin-3 recruitment” (Nature Communications, 2025)
# Residue numbers refer to the chain shown, from its start.
# How the values were obtained:
# [1] = molecular target: T1, Nluc-Y2R-eYFP D42A-S43A-T44A (Homo sapiens, UniProt P49146, D42A/S43A/T44A); test: NanoBRET equilibrium ligand binding
# T1 construct: expressed in transfected cells; host or cells: membrane preparations of transiently transfected HEK293
# T1 sequence (P49146 1-381 D42A/S43A/T44A): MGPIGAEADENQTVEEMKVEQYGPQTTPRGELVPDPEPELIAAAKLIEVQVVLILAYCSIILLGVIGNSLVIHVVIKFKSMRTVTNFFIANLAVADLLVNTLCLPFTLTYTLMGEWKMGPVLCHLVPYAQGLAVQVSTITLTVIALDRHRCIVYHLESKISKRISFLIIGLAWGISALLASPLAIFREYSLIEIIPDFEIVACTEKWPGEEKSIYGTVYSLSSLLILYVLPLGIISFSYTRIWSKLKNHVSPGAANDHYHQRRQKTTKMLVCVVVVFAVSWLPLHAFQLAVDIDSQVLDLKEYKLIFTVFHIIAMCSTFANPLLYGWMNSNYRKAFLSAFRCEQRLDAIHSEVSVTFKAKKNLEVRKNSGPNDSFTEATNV
# Description: (§1) Briefly, for each data point, membranes containing 0.03 μg total protein were suspended in ice-cold BRET binding buffer (Hank’s balanced salt solution (HBSS) containing 20 mM HEPES (pH 7.4), 0.1% bovine serum albumin (BSA)). The assay was performed in solid black 96-WP with a total assay volume of 100 μL in technical duplicate or triplicate. […] To determine unspecific binding, 100 µM of the Y2R antagonist JNJ-31020028 (Selleck Europe) were added to each well. […] To start the dissociation measurement, the antagonist JNJ-31020028 was added to a final concentration of 50 µM (20 µL) using the built-in injector system of the plate reader and the BRET decay was measured for 20 min. Raw BRET was calculated as the ratio of fluorescence to luminescence, and the background value of the unspecific binding controls was subtracted to obtain the netBRET signal.
# Nluc-Y2R-eYFP E15-20K = molecular target: T2, Nluc-Y2R-eYFP E15-20K (Homo sapiens, UniProt P49146, E15K/E16K/E20K); test: NanoBRET ligand dissociation; assay type: binding; conditions: koff, charge reversal in the acidic patches
# T2 construct: expressed in transfected cells; host or cells: membrane preparations of transiently transfected HEK293
# T2 sequence (P49146 1-381 E15K/E16K/E20K): T1 sequence (P49146 1-381 D42A/S43A/T44A) with E15K, E16K, E20K, A42D, A43S, A44T
# Description: as §1
# Nluc-Y2R-eYFP Δ2-41 = molecular target: T3, Nluc-Y2R-eYFP Δ2-41 (Homo sapiens, UniProt P49146); test: NanoBRET ligand dissociation; assay type: binding; conditions: koff
# T3 construct: expressed in transfected cells; host or cells: membrane preparations of transiently transfected HEK293
# T3 sequence (P49146 with tags, fused parts or gaps): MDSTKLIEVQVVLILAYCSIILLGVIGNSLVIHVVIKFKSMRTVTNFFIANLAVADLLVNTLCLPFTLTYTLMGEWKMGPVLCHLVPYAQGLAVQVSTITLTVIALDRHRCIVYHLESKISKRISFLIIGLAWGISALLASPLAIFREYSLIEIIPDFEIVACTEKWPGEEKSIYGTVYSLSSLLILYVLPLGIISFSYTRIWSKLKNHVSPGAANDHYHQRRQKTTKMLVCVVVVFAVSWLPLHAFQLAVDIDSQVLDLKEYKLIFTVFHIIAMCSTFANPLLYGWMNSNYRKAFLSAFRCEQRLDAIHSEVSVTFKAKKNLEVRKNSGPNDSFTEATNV
# Description: as §1
# Nluc-Y2R-eYFP D/E35-39K = molecular target: T4, Nluc-Y2R-eYFP D/E35-39K (Homo sapiens, UniProt P49146, D35K/E37K/E39K); test: NanoBRET ligand dissociation; assay type: binding; conditions: koff, charge reversal in the acidic patches
# T4 construct: expressed in transfected cells; host or cells: HEK293, transiently transfected, membrane preparations
# T4 sequence (P49146 1-381 D35K/E37K/E39K): T1 sequence (P49146 1-381 D42A/S43A/T44A) with D35K, E37K, E39K, A42D, A43S, A44T
# Description: as §1
# WT Nluc-Y2R-eYFP = molecular target: T5, WT Nluc-Y2R-eYFP (Homo sapiens, UniProt P49146); conditions: cited from earlier work
# T5 construct: expressed in transfected cells; host or cells: membrane preparations of transiently transfected HEK293
# T5 sequence (P49146 1-381): T1 sequence (P49146 1-381 D42A/S43A/T44A) with A42D, A43S, A44T
# Source text: In the following, we are addressing the Reviewer’s comments point‐by‐point. We quote statements from the Reviewer in bold face. We refer to changes made in the manuscript in yellow italics. Reviewer #1 (Remarks to the Author): In this work ...
substance,measurement,setting,value
K18-Tamra-NPY: tetramethylrhodamine(Tamra)-labeled peptide (K^18-Tamra-NPY),BRETmax,"[1]; HEK293 membranes, 10 min RT, mean, 95% CI 0.0040 to 0.0080",0.0060
same,Low-affinity state affinity reduction vs wild-type,"[1]; NanoBRET, HEK293 membranes",about three-fold reduced
same,Fraction high affinity,"[1]; mean, 95% CI 0.0649 to 0.2365, P<0.01 vs WT",0.1507
same,"KD, high replicates (log)",[1]; replicate 1,-9.81
same,"KD, low replicates (log)",[1]; replicate 1,-6.11
same,"KD, high replicates (log)",[1]; replicate 2,-11.68
same,"KD, low replicates (log)",[1]; replicate 2,-6.26
same,"KD, high replicates (log)",[1]; replicate 3,-9.11
same,"KD, low replicates (log)",[1]; replicate 3,-5.98
same,Increase of ligand dissociation vs wild-type,Nluc-Y2R-eYFP E15-20K,two to three-fold
same,Increase of ligand dissociation vs wild-type,Nluc-Y2R-eYFP Δ2-41,two to three-fold
same,Increase of ligand dissociation vs wild-type,Nluc-Y2R-eYFP D/E35-39K,two to three-fold
same,"KD,high",WT Nluc-Y2R-eYFP; G-protein-dependent high-affinity state,subnanomolar
same,Kd,WT Nluc-Y2R-eYFP; G-protein-independent low-affinity state,~300 nM
